In paper PMC9907207:

Molecular target: D614G VFLIP spike trimer (SARS-CoV-2)
Test: cryo-EM structure

Q: “D614G VFLIP spike trimer (natural protein)” was tested. Which stoichiometry N did it give?
A: Its stoichiometry N is 3.
